Test results from the supplement of paper PMC10567573.

B1: ZNF263 (parent)
chain: VPGTQVGQGGKLWDPSVQSCKEGL

Variants of: B1
Assay: protein stability index of a GFP-peptide fusion (GPS, HEK-293T) (PSI 1-6); higher = more stable
Conditions: c terminus: a fixed tail appended
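Also: lentivirally expressed fusions sorted by FACS into six bins by GFP to DsRed ratio, PSI derived from sequencing read proportions per bin multiplied by bin number.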

Variant	protein stability index
VPGTQVGQGGKLWDPSVQRCKEGL [S19R]	3.89
VPGTQVGQGGKLWDPSVQKCKEGL [S19K]	4.25
VPGTQVGQGGKLWDPSVQWCKEGL [S19W]	3.38
VPGTQVGQGGKLWDPSVQTCKEGL [S19T]	4.29
VPGTQVGQGGKLWDPSVQPCKEGL [S19P]	4.33
VPGTQVGQGGKLWDPSVQQCKEGL [S19Q]	4.3
VPGTQVGQGGKLWDPSVQNCKEGL [S19N]	4.39
VPGTQVGQGGKLWDPSVQHCKEGL [S19H]	4.05
VPGTQVGQGGKLWDPSVQYCKEGL [S19Y]	3.76
VPGTQVGQGGKLWDPSVQSCKEKL [G23K]	4.35
VPGTQVGQGGKLWDPSVQSCKEVL [G23V]	4.6
VPGTQVGQGGKLWDPSVQSCKEWL [G23W]	3.12
VPGTQVGQGGKLWDPSVQSCKEFL [G23F]	2.69
VPGTQVGQGGKLWDPSVQSCKEHL [G23H]	3.64
VPGTQVGQGGKLWDPSVQSCKEEL [G23E]	4.4
VPGTQVGQGGKLWDPSVQSCKELL [G23L]	3.62
VPGTQVGQGGKLWDPSVQSCKEPL [G23P]	4.32
VPGTQVGQGGKLWDPSVQSCKERL [G23R]	4.34
VPGTQVGQGGKLWDPSVQSCKENL [G23N]	4.34
VPGTQVGQGGKLWDPSVQSCKEAL [G23A]	3.89
VPGTQVGQGGKLWDPSVQSCKEIL [G23I]	3.46
VPGTQVGQGGKLWDPSVQSCKECL [G23C]	3.59
VPGTQVGQGGKLWDPSVQSCKEYL [G23Y]	2.96
VPGTQVGQGGKLWDPSVQSCKETL [G23T]	3.96

Variant	protein stability index
VPGTQVGQGGKLWDPSVQSCKEQL [G23Q]	3.51
VPGTQVGQGGKLWDPSVQSCKEML [G23M]	3.88
VPGTQVGQGGKLWDPSVQSCKESL [G23S]	3.98
VPGTQVGQGGKLWDPSVQSCKEDL [G23D]	4.36
VPGTQVGQGGKLWDPSVRSCKEGL [Q18R]	3.05
VPGTQVGQGGKLWDPSVWSCKEGL [Q18W]	3
VPGTQVGQGGKLWDPSVSSCKEGL [Q18S]	3.88
VPGTQVGQGGKLWDPSVPSCKEGL [Q18P]	4.38
VPGTQVGQGGKLWDPSVVSCKEGL [Q18V]	3.87
VPGTQVGQGGKLWDPSVKSCKEGL [Q18K]	4.39
VPGTQVGQGGKLWDPSVNSCKEGL [Q18N]	3.42
VPGTQVGQGGKLWDPSVTSCKEGL [Q18T]	4.47
VPGTQVGQGGKLWDPSVLSCKEGL [Q18L]	3.97
VPGTQVGQGGKLWDPSVYSCKEGL [Q18Y]	4.01
VPGTQVGQGGKLWDPSVMSCKEGL [Q18M]	4.38
VPGTQVGQGGKLWDPSVQSCKEGQ [L24Q]	5.03
VPGTQVGQGGKLWDPSVQSCKEGD [L24D]	5.51
VPGTQVGQGGKLWDPSVQSCKEGM [L24M]	4.09
VPGTQVGQGGKLWDPSVQSCKEGA [L24A]	4.69
VPGTQVGQGGKLWDPSVQSCKEGE [L24E]	5.18
VPGTQVGQGGKLWDPSVQSCKEGT [L24T]	4.26
VPGTQVGQGGKLWDPSVQSCKEGP [L24P]	4.79
VPGTQVGQGGKLWDPSVQSCKEGS [L24S]	4.99
VPGTQVGQGGKLWDPSVQSCKEGN [L24N]	4.76

Variant	protein stability index
VPGTQVGQGGKLWDPSVQSCKEGK [L24K]	4.8
VPGTQVGQGGKLWDPSVQSCKEGF [L24F]	4.11
VPGTQVGQGGKLWDPSVQSCKEGI [L24I]	4.22
VPGTQVGQGGKLWDPSVQSCKEGH [L24H]	4.27
VPGTQVGQGGKLWDPSVQSCKEGV [L24V]	4.35
VPGTQVGQGGKLWDPSVQSCKEGW [L24W]	4.32
VPGTQVGQGGKLWDPSVQSCKEGG [L24G]	4.49
VPGTQVGQGGKLWDPSVQSCKEGC [L24C]	3.9
VPGTQVGQGGKLWDPSVQSCKEGY [L24Y]	3.73
VPGTQVGQGGKLWDPSVQSCKEGR [L24R]	4.92
VPGTQVGQGGKLWDPSVQSCKSGL [E22S]	3.95
VPGTQVGQGGKLWDPSVQSCKCGL [E22C]	3.42
VPGTQVGQGGKLWDPSVQSCKVGL [E22V]	3.79
VPGTQVGQGGKLWDPSVQSCKGGL [E22G]	4.34
VPGTQVGQGGKLWDPSVQSCKYGL [E22Y]	3.07
VPGTQVGQGGKLWDPSVQSCKAGL [E22A]	3.06
VPGTQVGQGGKLWDPSVQSCKPGL [E22P]	3.46
VPGTQVGQGGKLWDPSVQSCKLGL [E22L]	2.96
VPGTQVGQGGKLWDPSVQSCKHGL [E22H]	3.98
VPGTQVGQGGKLWDPSVQSCKWGL [E22W]	1.99
VPGTQVGQGGKLWDPSVQSCKQGL [E22Q]	3.84
VPGTQVGQGGKLWDPSVQSCKNGL [E22N]	3.64
VPGTQVGQGGKLWDPSVQSCKKGL [E22K]	4.49
VPGTQVGQGGKLWDPSVQSCKFGL [E22F]	2.58

Variant	protein stability index
VPGTQVGQGGKLWDPSVQSCKDGL [E22D]	4.25
VPGTQVGQGGKLWDPSVQSCKMGL [E22M]	3.13
VPGTQVGQGGKLWDPSVQSCKRGL [E22R]	4.05
VPGTQVGQGGKLWDPSVQSCKIGL [E22I]	3.23
VPGTQVGQGGKLWDPSVQSCKTGL [E22T]	4.42
VPGTQVGQGGKLWDPSVQSCQEGL [K21Q]	4.29
VPGTQVGQGGKLWDPSVQSCREGL [K21R]	4.04
VPGTQVGQGGKLWDPSVQSCGEGL [K21G]	3.99
VPGTQVGQGGKLWDPSVQSCHEGL [K21H]	4.05
VPGTQVGQGGKLWDPSVQSCTEGL [K21T]	5.17
VPGTQVGQGGKLWDPSVQSCVEGL [K21V]	3.89
VPGTQVGQGGKLWDPSVQSCFEGL [K21F]	3.27
VPGTQVGQGGKLWDPSVQSCWEGL [K21W]	3.52
VPGTQVGQGGKLWDPSVQSCYEGL [K21Y]	3.4
VPGTQVGQGGKLWDPSVQSCNEGL [K21N]	4.16
VPGTQVGQGGKLWDPSVQSCAEGL [K21A]	3.91
VPGTQVGQGGKLWDPSVQSCLEGL [K21L]	3.69
VPGTQVGQGGKLWDPSVQSCDEGL [K21D]	4.79
VPGTQVGQGGKLWDPSVQSCCEGL [K21C]	4.64
VPGTQVGQGGKLWDPSVQSCMEGL [K21M]	3.92
VPGTQVGQGGKLWDPSVQSCEEGL [K21E]	4.78
VPGTQVGQGGKLWDPSVQSCSEGL [K21S]	3.72
